Source: the supplement of paper PMC9170038

system: K4 kissing-loop RNA reporter; assay: apparent KD of K4 kissing-loop reporter; higher = weaker reporter binding; conditions: Eterna round: R107; input ligand: none
Method: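 RNA-MaP round R107: designed RNA switches with theophylline, tryptophan, arginine or FMN aptamers are transcribed on-chip within common flanks. They are titrated with a labelled K4 kissing-loop RNA reporter in RNA-MaP buffer (100 mM Tris pH 7.5, 80 mM KCl, 4 mM MgCl2), without ligand or with the indicated ligand. Median apparent KD per design.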
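Further: bound reporter read as fluorescence of individual clusters on recovered sequencing chips by microscopy, with normalized cluster intensities fitted with a binding model.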

Sequence	apparent KD of K4 kissing-loop reporter [nM]
UGCGCUAUGUCCUAAAACGUCCUCCGGGAUACCAGUGUCUUUUUAUACCCUUGGCAGCUUGAGUGAUGUUUGAUGCCGUUCUUGU [izzxmullin]	310
CUGACCAACAGCGAUACCAGCGUGGAGUGAUGUUCCGUGGAUCGGAGUGAUGUUCCGAAGCGCCCUUGGCAGCGCAGAAGCAGGA [Exclusion Theophylline B GF11]	201
UGACUGGAUGGAAGGAGCGCUAAACUCCUAGUGAUGUUAGGGACAUGAGGCACAGCCUUGAAGCAGGUAGGUCGCCAUCUAGUCU [FiskerMod 28 - Jieux - Same State - Arginine B]	176
UGGGCUGCCUGAGGAUAUAGAGACGAGUGAUGUUCGUGGAUAAGAGCCAGUGAUGUUGGGUUAUUUCUAGAAGGCGGGCGAACUU [Exclusion FMN B GF8]	120
ACGAUUUACAGAAGGAGCGUGUAUUUAUCUACAAUUUUCUUAGCGAGUGAUGUUCGUUAUACACAGGUAGGUCGCUGUAUAUCGA [JR_ExcArginiB_Sub013]	201
UCCUCGAAUCGACCUCGAAAGAGGAUGGAUACCAGAGAAGAAAUUCUCCCUUGGCAGCCAGUGAUGUUGGAACGAGGUAAAUAAA [#SwitchBubble 20 #K4Late]	517
GUAUGUGGAAACACGUACUUAUAUCCUCGACAGGAUAUGCGGAAACGCAGAAGGGUCGCCAACGAGUUUAUCCAGUGAUGUUGGA [Ex FMN A 15]	362
GGUUUAUAAGAGGAUACCAGUACAAAUAAAGUACAUUAAUAGUAGAGUGAUGUUCUAAAGUACCCUUGGCAGCUUAGAUUAAGUU [ExTheophylB.F]	151
ACCAUCAAAGAUGGCCAGGACUCCGCUGAUACCAGAGUGGAAACACUCCCUUGGCAGCAGGUGAGUGAUGUUCACAGUCCAUGGA [Omel KL Theo A SS B v4]	421
GGGUCUGCCGGAAGGAGCGCACUAUGGAGUGAUGUUCCAUGACCGCACAGCUUGCGGUCAGUGCAGGUAGGUCGCCGGUAGCGUU [Inesor]	175
CUUGGCAUGCGCGAUACCAGCGAACAUAGCAAGCUACGGGUAGUGAUGUUAUCUGAAUAACGCCCUUGGCAGCGCACAUGCCGGC [clock]	593
CACCCUAGUUCAGAUACCAGACUAGAGACAGUGAUGUUGUCACAUCCUAAAUUGGGUGUAGUCCCUUGGCAGCUGAGUAAUCUGC [Theo B/Ex/SS double]	724
GGUAGCAUGGCGGCCGCCACUUCAAAUGGAGUGAUGUUCCAAGGCAUCGCGAAAGCGAUGCCAGGAAGGACCGGGCCAUGCUACC	522
GGAAGGAAGGAAACCAACCAACCAACCGAUACCAGCGGAAGAGAACGCCCUUGGCAGCGGAGAAAGCCAGUGAUGUUGGAAAGAA	402
AGUGUUAGGUUAGAUACCAGCCGUCUGUGGAUAAUCCACAGACCGCCAGUGAUGUUGGCAGGCCCUUGGCAGCUAACAGGACAGA [Riedingeus]	220
UUAGGCUCUCUUCUCAUUCGCUUAACCGAUACCAGAGUAAGCCCUCUCCCUUGGCAGCGGAGUGAUGUUCCGAGUGUUGAUAUUG [theeternabot_exclusion_KL_Theo_A_44]	113
AAACAUUGGUGCGAUACCAGCUGAUCGGAAACGAUCAUGCUGGAGUGAUGUUCCAGGAAAAGCCCUUGGCAGCGCACCGAUGAAA [MAT - Same State Theophlline B - Mod of Eli - D29]	78.5
UGACUACAUAAGGAUUAAUCCUAGUGAUGUUAGGAUAUGCUGAUAAGCAGAAGGAACGGAGAUCGAAGGAUCUCAUAUGUAGUCU [whbob_Ex_FMNA__2th195]	164
UAUGAAGGUGGAGGAUAUUGAUUGAAUCUUGGUCUGGAGUGAUGUUCCGGGAAGCCUUGGAUUCAUCGAGAAGGCCAAGGAUAGU [Extra 1]	307
AGCCAGCGUACAUCACUCUGGCUGCUGGAUACCAGCUCGGAAACGAGCCCUUGGCAGCCAGAACUUGCAGUGAUGUUGCAAGUAA [Design12]	402
CGCCGCAAGGCGAGCGCUCCCACUCCGGAAGGAGCGCCCGGAAGGGCAGGUAGGUCGCCGGAGUGAUGUUCCGGUGGAGGGCUCG [#2 Exclusion - Arginine A Attempt #13 (Inspired by Omei)]	334
UUCGUCGCGCAUGAUACCAGCGAGAUUUAACGCCGAAUCCUCACGCAGUGAUGUUGCACCCGCCCUUGGCAGCAUAGCCGGUUAC [theeternabot_sameState_KL_Theo_B_13]	328

same assay, conditions: Eterna round: R107; input ligand: theophylline 20 uM

Sequence	apparent KD of K4 kissing-loop reporter [nM]
UCGGCGGAGUGAUGUUCCUAUGUCCAAGAUACCAGUCUAUGAACGGACCCUUGGCAGCUUCCAUUAGGUUACUAUUUAGACUCAU [theeternabot_exclusion_KL_Theo_A_10]	248
AGCAAAACCAAAGGAUAUUGGCAGUCGAUGUACCAUGUUCCCGUAGCAGGUUGAGUGAUGUUUAAGCAAGAAGGUUGGCGUUUGG [theeternabot_exclusion_KL_FMN_B_12]	457
UACUAUAGUGAUGUUAUAGAUAAACCAGAUACCAGUGUAACAUAACACCCUUGGCAGCUGAUGAGGGAACAUAUGAAUGCAUAUG [AstrosSSTHe-A#5newdesignED5.11]	178
GGCACUUUUGGUAGAAAACAUCUACCUCUAUAGGAUAUGCCGAAAGGCAGAAGGAUAGACCUACAGAGUGAUGUUCUGCGUGCCU	356
AGCGCUGCCUGAGGAUAUAGAAACGAGUGAUGUUCGUGGAUUGAUACCAGUGAUGUUGGCCUAUUUCUAGAAGGCAGGCGAUCGU [Exclusion FMN B GF2]	88.2
AUUAUAAAGGCGGCCGCCACUAGUGAUGUUAGUGACUAUAGUAUUAUCUAUAGAAUAAAAUAAAAUAGGACCGGGCCAAAAUAUU [AstrosExTryB#2]	493
GGUGACAACCAGAAGUGAUGUAUAGAAUAGCGAGGACCGGUACGGCCGCCACUCGUGAAGAGAAAGGAGUGAUGUUCCGUAAUGG [Kazoo C4]	243
AAGUGAUGUUGUAGUGAUGUUGUGAUGUUGCAGGAUAUAUAGUGAUGUAGAAGGGUAAGUACUCAUGUUGUUAGUAAGUGAUGUU [bttutmullin]	63.7
UAAAUCACACGAGAUACCAGCCAAACCGAACUUGAGCACUAUAGUGAUGUUAUAUUGCGAGGCCCUUGGCAGCUCAAUAGAACAA [theeternabot_sameState_KL_Theo_B_11]	145
AUUUUGGUUGAGAGUGAUGUUCCUUGUGUUCGAGGACCGGUACGGCCGCCACUCGGGUAGAAAAUAAAAGAAAUGUUUGAUUUUU [BDazzled - #11 SS Tryptophan A]	143
GUACGCUCUCGAGUGAUGUUCGGUAAUCGCGAGGAUAUCGCUUUUGCGAGAAGGCGCGGAAUGAGGAAACUCGUUCUGAGUGUAC [FMN A 23]	637
GCCGUACGCAUGGAUACCAGCAAGCAUAGCAGGAAACUGCUAUGCACCAGUGAUGUUGGAUGCCCUUGGCAGCCAUGCGUACGGC	439
UGAUAGGACAGAAGGAGCGGUAGUGAUGUUACCAAAAGAAUAAGGUGUCAAAAGACACCCUGCCAGGUAGGUCGCUGUCCUAUCU	123
AGACUACCACACUGUCAAUAGACAGUGAAUUAGGAUAUGCUGAUAAGCAGAAGGAGUGAUGUUCCCAGGUAGUCAAUAAAAUAAU [FmnAX 13 U30+C66]	202
CUUGAGACAUGAGUGAUGUUCAUGUCCGAAGGAGCGUGCGAAAGCACAGGUAGGUCGCGGACGUGAGUGAUGUUCAUGUGAGCGA [KL-XArg-A10 #analogue]	223
UGGAGUUGACGAAAAGUCAACUCCUGAGAAGGAGCGGACGAAAGUCCAGGUAGGUCGCUCACUACCAGUGAUGUUGGUACUUGAA	428

Sequence	apparent KD of K4 kissing-loop reporter [nM]
UGUCAUUGGUCGGCCGCCACUAGAAGGUCAAAGACCAUAGAGUGAUGUUCUGAGACGAAAGUCACUAGGACCGGGACCGAUGACU [TrypBS 6 #SwitchBubble #K4Middle]	440
CGCGCGCGCGCGCGCGCGCGCGCGCGAAGUGAGGAUAUUUAGGGAGAAAGAAGGCACUAUAAAAUAUAGUGAUGUUAUAUAAGGG [SSFMNA.B]	203
GUACGCUCUCGAGUGAUGUUCGGUAAUAGUUAGGAUAUCGCUUUUGCGAGAAGGAACUGAAUGAGGAAACUCGUUCUGAGUGUAC [FMN A 18]	398
UGUAUGUGAUUUGAUACCAGACCAGCUGGUGGUGUAUGAGUGAUGUUCAUGCUGGUUUGGGUCCCUUGGCAGCAAAUCGCAUACU [KL-SSTheoB29]	7.6
GCACUCCAUCGGACGUAAGUGAUGUUUACCCGAGGACCGGUACGGCCGCCACUCGACCGUGCAUAACCAAAUCAAAUAGCUUCCG [theeternabot_exclusion_KL_Trp_A_31]	120
UGCGCUAUGUCCUAAAACGUCCUCCGGGAUACCAGUGUCUUUUUAUACCCUUGGCAGCUUGAGUGAUGUUUGAUGCCGUUCUUGU [izzxmullin]	386
CUGACCAACAGCGAUACCAGCGUGGAGUGAUGUUCCGUGGAUCGGAGUGAUGUUCCGAAGCGCCCUUGGCAGCGCAGAAGCAGGA [Exclusion Theophylline B GF11]	150
UGACUGGAUGGAAGGAGCGCUAAACUCCUAGUGAUGUUAGGGACAUGAGGCACAGCCUUGAAGCAGGUAGGUCGCCAUCUAGUCU [FiskerMod 28 - Jieux - Same State - Arginine B]	166
UGGGCUGCCUGAGGAUAUAGAGACGAGUGAUGUUCGUGGAUAAGAGCCAGUGAUGUUGGGUUAUUUCUAGAAGGCGGGCGAACUU [Exclusion FMN B GF8]	129
ACGAUUUACAGAAGGAGCGUGUAUUUAUCUACAAUUUUCUUAGCGAGUGAUGUUCGUUAUACACAGGUAGGUCGCUGUAUAUCGA [JR_ExcArginiB_Sub013]	199
UCCUCGAAUCGACCUCGAAAGAGGAUGGAUACCAGAGAAGAAAUUCUCCCUUGGCAGCCAGUGAUGUUGGAACGAGGUAAAUAAA [#SwitchBubble 20 #K4Late]	327
GUAUGUGGAAACACGUACUUAUAUCCUCGACAGGAUAUGCGGAAACGCAGAAGGGUCGCCAACGAGUUUAUCCAGUGAUGUUGGA [Ex FMN A 15]	335
GGUUUAUAAGAGGAUACCAGUACAAAUAAAGUACAUUAAUAGUAGAGUGAUGUUCUAAAGUACCCUUGGCAGCUUAGAUUAAGUU [ExTheophylB.F]	217
ACCAUCAAAGAUGGCCAGGACUCCGCUGAUACCAGAGUGGAAACACUCCCUUGGCAGCAGGUGAGUGAUGUUCACAGUCCAUGGA [Omel KL Theo A SS B v4]	380
GGGUCUGCCGGAAGGAGCGCACUAUGGAGUGAUGUUCCAUGACCGCACAGCUUGCGGUCAGUGCAGGUAGGUCGCCGGUAGCGUU [Inesor]	177
CUUGGCAUGCGCGAUACCAGCGAACAUAGCAAGCUACGGGUAGUGAUGUUAUCUGAAUAACGCCCUUGGCAGCGCACAUGCCGGC [clock]	679
